Assay results reported in patent US20050208611A1, “Process for identifying compounds with fungicide activity based on UMP/CMP kinases from fungi” (priority 2003, published 2005).

What was measured:
[1] = system: O=c1ccn([C@@H]2O[C@H](COP(=O)(O)O)[C@@H](O)[C@H]2O)c(=O)[nH]1; experiment: purified protein, by the assay type; details: other: substrate Km of the recombinant UMP/CMP kinase from U. maydis, Lineweaver-Burk plot (FIG. 4A/4B)
[2] = system: Nc1ncnc2c1ncn2[C@@H]1O[C@H](COP(=O)(O)OP(=O)(O)OP(=O)(O)O)[C@@H](O)[C@H]1O; experiment: purified protein, by the assay type; details: other: substrate Km of the recombinant UMP/CMP kinase from U. maydis, Lineweaver-Burk plot (FIG. 4A/4B)
Procedure: The ADP produced in the reaction is measured by the coupled reaction with pyruvate kinase and lactate dehydrogenase. Here the pyruvate produced in the reaction of the pyruvate kinase is converted to lactate by the lactate dehydrogenase with the use of NADH.
The activity and/or decrease or increase in activity of the inventive polypeptide can therefore occur by coupling this reaction with the enzymatic conversion of the ADP by the pyruvate kinase and the subsequent enzymatic conversion by the lactate dehydrogenase of the pyruvate produced. This makes use of the fact that the pyruvate produced in the reaction of the pyruvate kinase is converted to lactate by the lactate dehydrogenase (LDH) with the consumption of NADH.
The co-substrate NADH consumed in the reaction of the LDH has an extinction maximum at 340 nm.

Substance: UMP/CMP kinase from Ustilago maydis (Mycosarcoma maydis)
- Km [1]: 120 µM
- Km [2]: 60 µM
